Data on two proteins can be found in article PMC10815921, “Mimicking Protein Kinase C Phosphorylation Inhibits Arc/Arg3.1 Palmitoylation and Its Interaction with Nucleic Acids” (International Journal of Molecular Sciences, 2024).

Data set [1] deals with the molecule itself. Kind of data set: SEC; HiLoad 16/600 Superdex 200, solution B (20 mM HEPES pH 7.5, 100 mM NaCl, 0.5 mM TCEP), 4 °C; proteins prepared without ammonium sulfate treatment (bound nucleic acids kept); loads 25-70 µM. On the technique in general: SEC sorts molecules by how far they enter the pores of the column.
Data set [2] concerns the molecule itself. Nature of the data set: dynamic light scattering; ~20 µM, 25 °C, 20 mM HEPES pH 7.5, 100 mM NaCl, 1 mM TCEP; Arc^WT was ammonium sulfate-treated (nucleotide-free).

B1: Arc ΔH1 (aa 33–70 deleted) (natural protein, mouse, UniProt Q9WV31 1-396, looked up)
chain: MELDHMTTGGLHAYPAPRGGPAAKPNVILQIGLENNLDGYVPTGDSQRWKKSIKACLCRCQETIANLERWVKREMHVWREVFYRLERWADRLESMGGKYPVGSEPARHTVSVGVGGPEPYCQEADGYDYTVSPYAITPPPAAGELPEQESVEAQQYQSWGPGEDGQPSPGVDTQIFEDPREFLSHLEEYLRQVGGSEEYWLSQIQNHMNGPAKKWWEFKQGSVKNWVEFKKEFLQYSEGTLSREAIQRELELPQKQGEPLDQFLWRKRDLYQTLYVDAEEEEIIQYVVGTLQPKLKRFLRHPLPKTLEQLIQRGMEVQDGLEQAAEPSGTPLPTEDETEALTPALTSESVASDRTQPE
notes: Arc (Arg3.1), mouse, lacking helix H1 (residues 33-70); Made by PCR from the full-length GST-Arc construct; source: E. coli Rosetta 2, purified (glutathione resin, released with TEV protease; with or without 35% ammonium sulfate precipitation); not shown: GST, N-terminal, cleaved
B1: the binding result in data set [1] is reported as “binds”.

B2: Arc S84,90E phosphomimetic mutant (natural protein, mouse, UniProt Q9WV31 1-396, looked up)
chain: MELDHMTTGGLHAYPAPRGGPAAKPNVILQIGKCRAEMLEHVRRTHRHLLTEVSKQVERELKGLHRSVGKLENNLDGYVPTGDEQRWKKEIKACLCRCQETIANLERWVKREMHVWREVFYRLERWADRLESMGGKYPVGSEPARHTVSVGVGGPEPYCQEADGYDYTVSPYAITPPPAAGELPEQESVEAQQYQSWGPGEDGQPSPGVDTQIFEDPREFLSHLEEYLRQVGGSEEYWLSQIQNHMNGPAKKWWEFKQGSVKNWVEFKKEFLQYSEGTLSREAIQRELELPQKQGEPLDQFLWRKRDLYQTLYVDAEEEEIIQYVVGTLQPKLKRFLRHPLPKTLEQLIQRGMEVQDGLEQAAEPSGTPLPTEDETEALTPALTSESVASDRTQPE
notes: Arc (Arg3.1), mouse, with serines 84 and 90 mutated to glutamic acid; source: E. coli Rosetta 2, purified (glutathione resin, released with TEV protease); not shown: GST, N-terminal, cleaved
As to B2, the binding result in data set [2] is given as “binds”.
